B1: GS1891: dsRNA trigger SEQ ID NO 122; gene target eka-like_protein (nucleic acid)
chain: CACCAACTGGGTGTCAGTACTAATACCAACAGTTCCAGCTGTTTTACATAAAGAACAAGGAGTAGTTGAAGTGAGCAACAGCATGCTTGCTGATGAGGTGGAACGTGTCTGCTCTGTGCGGCCAGCTCACATAAAGCTTTATGGAAGAAATAAACCTGAGGCACCGTATCGAACATGGATGGCTTTCTTCCCGAAAGCTCCACGCGGCACTTTTAAAGTGTTCGACGAATCTGGAATTGCGAGCGAGGTCTTTTAAAAAGCAGCAACCTCTCGAATTTTGTAAAAGATGCAATGGGCACCACTCTATTAAAAATTGCTCAAGGGCTCCTTCGTGCGGAAATTGTGGCTCGACCAATCATACCGAGGATTTATGTATGGCCGCAACTAAGTGTAGAAATTGTGG
B2: GS1893: dsRNA trigger SEQ ID NO 124; gene target C2H2 zinc finger domain (nucleic acid)
chain: CACAACCTTGGGTCTGTCCTTAATTTTTCCACCAAATAATCAATCCTACGACCATTGCGTGGGACAATAATTCAATAAGGAAAATTTAAATAAAAAAAAATTTAAAAAAAAAGAAAAAGAAAAAATTTAATTAAAATCCATAATAAATACTCTGTTAATATTTACAAGGGAATCTTAATTATTCAACCAACCAATTATCTCGGAAAAGGATAAAGGAGTTGGTTTACATCTAACGATTAGAAAGCCTTTGAACCTAGTATGCCCAATTCTCTTCATATGGATACCCAGTTTCACTCAAACAATATGAATAGCAGTACAGCGAATTATAGTTCATTGCCTAGCATTTCGCCTCATCAACTGCAGCAGCAAAATCAAATGCCGACTCATATTCT
B3: ES46: dsRNA trigger SEQ ID NO 110; gene target Hypotethical effector (nucleic acid)
DNA: TTGGAAGAACCGCCAGAAAACCCAATCAGATACCGATCTCTACTCGGATCATCATTTCACTTCGCAACATGCAATTAACGGTTATGTACCTTCTATAGGCTTTGAATCCGATGGTTATGGGATTAGTAAGAGATCTAATCGTAAAACTGTTCATGGATATTACTGTGGGAGCTCAAAACATGAGCAGCATTTTTATGAGCAGGACTATATTAAAATATATACATGTCAAACATAATGCAAACTTAATTCCATATAGTTAACTGAAATGGTCATTTTTTCACAGCTTTAACTCAATTCCTTTTGAAGAGTGATAACTTTTACTTGCAATTCCTAATTAAAATAAGAGCACAAGCCTTAATTTTTGGATCTAAAATATCAATGCCAACCCCTTGTGCACTGTTGGTAGTGAAAATCTTCGTTATTTGTGACAACATCCACAATCTCGCACTGCGTATTGATA
B4: GS1888: dsRNA trigger SEQ ID NO 182; gene target Succinate dehydrogenase [ubiquinone] iron-sulfur subunit, mitochondrial (nucleic acid)
chain: TTTTAGGCGTTACAATCTTCAATAAATAACTAACATCGATAACAGGTCGTATACCAGCAGATACTAGTAAAGAAACGAAGATTTACCCCCTTCCTCATACCTATGTAGTTAAGGACATCGTCCCAGATCTCACACAGTTTTACAAACAGTATAAGTCCATCAAGCCATACCTTCAACGTACATCTCCCTCACCCAATGGTAAAGAATATCTACAAAGTAAGGAGGACAGAAAAAAACTCGATGGGTTATATGAGTGCATTTTGTGCGCATGCTGTTCTACTTCATGCCCCTCTTACTGGTGGAACTCTGAAGAATACTTGGGCCCAGCTGTTCTGATGCAAAGCTATAGATGGTTAGCAGATTCTCGAGATGAAAAGACAGCTGAGCGAAAGAGTGCTCTGGATAATAGTATGAGTCTCTATCGATGTCATACCATATTAAATTGTT
B5: GS1892: dsRNA trigger SEQ ID NO 148; gene target COP9 signalosome complex subunit 5 (nucleic acid)
chain: CGAGCTCTTATAGTGTGAGATCTGCAGCGAGTAGTATCTACTACTATGGGCACCGAAATCTTCGATCTTAGATAGTGGTATCGTTTGATAACCATCGTTAGTTGACGATTCTGCCGCCTTGTAGTTTTCTGGATAGGTCCGGAATGCACCTATTTCAACCTTACCAGCTGAGATGGTGCGATCTGGGTCAATGACAACCGCAAGAAAAGGATCCGAGAATGATTGCTGTATATGCTGTGTGCTAACATCTATGCCACTGAGCCAGCAGCCATAGCCTGGATGACTGTGGTACCACCCCACTGCATTCTCTAACTTTCCTTGCTCTCGACATGCCTGGAGATAACGAACCATATATTCATTTGCCTCATCTTGGGCATTAACACGTGTCTCCGTGCCTTC
B6: GS1894: dsRNA trigger SEQ ID NO 123; gene target eka-like_protein (nucleic acid)
chain: AAAGGTAGTGGCTCTGGGTCTGGAAAAGGGAAAAATGTAGAAAAGAATGTTGCTGTTGCAACCCCTAAATTACCAAAACCTCCCCAAACCTCACTGAACACATGGGTTACTGTGGCTCGAAATGGTCAGAAGAAGGCCCGAGTTCTTCAAAATAATAATATACACACCACCCCGATGAGTAAAATAAGACCACGAGTATCAATTGTGGAGAGAGCCTCAGCTGCTCCGACAGATAATAGGCTGTTTCTCCGTCTCCCCCAAGAACATGAATGGCGAAAGCTTTCTCCTGCTGAAATACGTAAGGTAATTTTAAAGAAACTTTCAATCTCACCCGTATTGGTTGGGAATACGTGAGGTAATTGTACATTGGTTGGGAAAATTAA
B7: ES45: dsRNA trigger SEQ ID NO 109; gene target Hypotethical effector (nucleic acid)
DNA: CTCACCTTGGCATCTACGAAGCCGACAGGAAGGTGGTGGCTACTATGGCCAACCATCGAATGGTGATGGAAGTGTGTATCCACCTTCATCTGGTACAGGTGGCTTTCTATCGCCAACTGCTACGAGCGGTTATCCGTCTGCAACTGGAACTGGCGGCTATTCATCTCCATCGGGCACCGGTGGCTACCCGTCTGCAACAGTTGAAAAAGACAATATTTCGAAGTTCCCGAGAGCTTTCGTATCCGGCAATGACTGCATCACGTCGAATTTCTACGATCCAAGACGAAAATAGTTTGTTTTTTTGCTGTTGGCGTGGAGTCTAGCTGTTGTGTACCCGAACCCTATTCGGATCATCAAATAGGATTGTAAGTTGGTTCATCATTTTATGAACAGATTCAAATTGTATTACCCCATTCTTAATCAATACCATGCAGGTGTGACTGACAGTC
B8: GS1890: dsRNA trigger SEQ ID NO 154; gene target Pre-rRNA-processing protein FHL1 (nucleic acid)
chain: TAAAGGAATTGAAGGAGGAAAATTTGATGATGGATTGATAACAGACGGTACTTGCCCATTTATACGAGGTGGTAGCTGATAATTTGAAAAGTGACCTAATTGATTATGTGAAGATTCCATCGGGGCCCTGTACGTAAAGTGGCCTGCTATCTTTGAGAGACCATTTTGATAAGGAGTTTGTTGCAGACCTAGATAAGATTGAGGAGGCGGAGTAGCTCTCCTTTTTTTCTCTTTTTCAATAGATATACCGTCAACGATTCCCCAAGTCCAGCCTTTTCCATCCTTTTCAACTTTGCGGAAAGCATGGTGTTGTGATAGATTGTGACGAACACTACTTTGCCAGCCTAAGGTTTGAGTTTTAAATCTGAAATATGGGTATTTCCTGTATATAGCTCGGTAGATGT
B9: GS1895: dsRNA trigger SEQ ID NO 125; gene target eka-like_protein (nucleic acid)
chain: ACGCGCGGCTAATGATATGCACAATGCACGGTGATTAGTAGCATAGATAGTACATTAGCGACTTTTACAAAAGAAGTAGAGATAGAAGAGGCTGTAGCTTTCAAAGCGTACCTCAAACTTGCAATAGCAAACTTTGCAGCAGTAGATTCGTCCCCTCCTCCACCTCGTGTCCCATTACATACAAGACCGAATAAAGGTAACGGAAATGATAGCAGTAAAGGGAAAAGTAAAGAGAAAAACTTGTCAAAGATAGCAGTCGCAATACCTCGTATTGCTTGTAATCGAATTATCATGGGCCACAGTAATCAAAATCCAAATCTGGGTACGATCAAAGAAATAGAATTACCAAAAATTATTAAAAATATGATATA
B10: GS2382 (nucleic acid)
sense: AAAAGUUAUGGCGGAAAUCACUAUAUAUACUGCUUCACAUGCCUUACAAGGAGAAGAGGUCCGUGAGAAUUUUGACUCAUCUUUUGCCGCUCUUUAUCAUGAUCUUGAUAUGGGAUUUACACCGAUCAACUUUACAUUUUACUGGGCACCUCUACCUUGGAAUCGUGCUCGUGAUCAUGCCCAAAGAACUGUUGCUAGGA
antisense: UCCUAGCAACAGUUCUUUGGGCAUGAUCACGAGCACGAUUCCAAGGUAGAGGUGCCCAGUAAAAUGUAAAGUUGAUCGGUGUAAAUCCCAUAUCAAGAUCAUGAUAAAGAGCGGCAAAAGAUGAGUCAAAAUUCUCACGGACCUCUUCUCCUUGUAAGGCAUGUGAAGCAGUAUAUAUAGUGAUUUCCGCCAUAACUUUU
B11: GS2384 (nucleic acid)
sense: AUGGGAUUUACACCGAUCAACUUUACAUUUUACUGGGCACCUCUACCUUGGAAUCGUGCUCGUGAUCAUGCCCAAAGAACUGUUGCUAGGACUUAUAUGAAUAUAAUCCAAGCUCGUAGAGAAGAGAAAAGAAGCGGUGAGAAUAAGCAUGAUAUAAUGUGGGAGUUGAUGCGUUCCACUUAUAAAGACGGGACUCCGGU
antisense: ACCGGAGUCCCGUCUUUAUAAGUGGAACGCAUCAACUCCCACAUUAUAUCAUGCUUAUUCUCACCGCUUCUUUUCUCUUCUCUACGAGCUUGGAUUAUAUUCAUAUAAGUCCUAGCAACAGUUCUUUGGGCAUGAUCACGAGCACGAUUCCAAGGUAGAGGUGCCCAGUAAAAUGUAAAGUUGAUCGGUGUAAAUCCCAU

Tested on: E. necator
Assay: Leaf disc assay, dry inoculum (settling tower), decrease in disease severity / hyphal growth (Example 2)
Conditions: decrease in disease severity (hyphal growth) relative to untreated control, value ± SE; for % decrease =/− SE TP1: time point 1 (untreated control hyphal growth ≥50%); for % decrease =/− SE TP2: time point 2

Molecule	% decrease =/− SE TP1 [%]	% decrease =/− SE TP2 [%]
B1	3 ± 7	4 ± 7
B2	5 ± 5	–
B3	6 ± 0	5 ± 0
B4	19 ± 6	19 ± 6
B5	8 ± 5	3 ± 6
B6	4 ± 6	0 ± 6
B7	41 ± 5	31 ± 7
B8	16 ± 5	4 ± 5
B9	–	4 ± 7
B10	17 ± 0	4 ± 0
B11	20 ± 0	8 ± 0
